Results: US20250262210A1 (TRUSTEES OF COLUMBIA UNIVERSITY IN THE CITY OF NEW YORK, published 2025)

Tests used:
Assay in all cases: IP/MS, LZTR1 wild type-FLAG, U87
[1] = target: TTI1 (human, UniProt O43156 1-1089)
Outline: (§1)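 Gel slices were reduced with 5 mM DTT, alkylated with 11 mM IAA and digested overnight at 37° C. with trypsin. Peptides were analysed on an Orbitrap Fusion Tribrid by LC-MS/MS.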

[2] = target: TUBGCP2 (human, UniProt Q9BSJ2 1-902, limits assumed)
Outline: as §1

[3] = target: T1, FHOD1 (human, UniProt Q9Y613 2-1164)
T1 sequence (looked up): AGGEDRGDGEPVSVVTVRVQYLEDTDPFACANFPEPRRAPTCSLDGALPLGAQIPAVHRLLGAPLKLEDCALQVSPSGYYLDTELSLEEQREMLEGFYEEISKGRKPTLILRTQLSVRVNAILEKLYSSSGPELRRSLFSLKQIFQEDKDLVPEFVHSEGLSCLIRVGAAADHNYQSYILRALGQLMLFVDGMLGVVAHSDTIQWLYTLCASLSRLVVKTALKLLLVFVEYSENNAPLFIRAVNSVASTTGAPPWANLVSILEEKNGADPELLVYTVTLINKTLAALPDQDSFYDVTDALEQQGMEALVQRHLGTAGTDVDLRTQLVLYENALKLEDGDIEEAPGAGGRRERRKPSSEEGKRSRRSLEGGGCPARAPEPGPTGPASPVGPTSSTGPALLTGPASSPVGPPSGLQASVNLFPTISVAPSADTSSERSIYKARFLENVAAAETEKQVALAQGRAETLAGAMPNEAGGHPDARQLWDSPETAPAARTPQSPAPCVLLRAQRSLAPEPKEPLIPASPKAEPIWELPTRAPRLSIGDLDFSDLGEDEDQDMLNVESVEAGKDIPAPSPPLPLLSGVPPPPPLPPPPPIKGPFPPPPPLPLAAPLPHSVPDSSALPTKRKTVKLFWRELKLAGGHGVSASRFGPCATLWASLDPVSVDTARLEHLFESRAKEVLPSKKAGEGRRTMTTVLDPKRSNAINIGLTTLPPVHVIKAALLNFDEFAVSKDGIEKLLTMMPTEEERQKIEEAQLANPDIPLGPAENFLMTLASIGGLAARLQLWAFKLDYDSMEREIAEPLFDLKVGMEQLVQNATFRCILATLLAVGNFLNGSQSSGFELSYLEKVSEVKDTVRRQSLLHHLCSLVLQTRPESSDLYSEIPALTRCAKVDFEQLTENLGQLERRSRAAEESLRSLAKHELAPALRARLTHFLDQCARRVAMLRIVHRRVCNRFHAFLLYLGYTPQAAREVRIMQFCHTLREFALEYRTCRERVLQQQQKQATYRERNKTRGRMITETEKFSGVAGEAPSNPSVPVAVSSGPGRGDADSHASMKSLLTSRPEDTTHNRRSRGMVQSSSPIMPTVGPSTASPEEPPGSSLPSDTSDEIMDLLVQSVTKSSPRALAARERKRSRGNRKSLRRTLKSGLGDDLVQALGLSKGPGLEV
Outline: as §1

[4] = target: KDM5C (human, UniProt P41229 1-1560, limits assumed)
Sequence of KDM5C (P41229 whole entry): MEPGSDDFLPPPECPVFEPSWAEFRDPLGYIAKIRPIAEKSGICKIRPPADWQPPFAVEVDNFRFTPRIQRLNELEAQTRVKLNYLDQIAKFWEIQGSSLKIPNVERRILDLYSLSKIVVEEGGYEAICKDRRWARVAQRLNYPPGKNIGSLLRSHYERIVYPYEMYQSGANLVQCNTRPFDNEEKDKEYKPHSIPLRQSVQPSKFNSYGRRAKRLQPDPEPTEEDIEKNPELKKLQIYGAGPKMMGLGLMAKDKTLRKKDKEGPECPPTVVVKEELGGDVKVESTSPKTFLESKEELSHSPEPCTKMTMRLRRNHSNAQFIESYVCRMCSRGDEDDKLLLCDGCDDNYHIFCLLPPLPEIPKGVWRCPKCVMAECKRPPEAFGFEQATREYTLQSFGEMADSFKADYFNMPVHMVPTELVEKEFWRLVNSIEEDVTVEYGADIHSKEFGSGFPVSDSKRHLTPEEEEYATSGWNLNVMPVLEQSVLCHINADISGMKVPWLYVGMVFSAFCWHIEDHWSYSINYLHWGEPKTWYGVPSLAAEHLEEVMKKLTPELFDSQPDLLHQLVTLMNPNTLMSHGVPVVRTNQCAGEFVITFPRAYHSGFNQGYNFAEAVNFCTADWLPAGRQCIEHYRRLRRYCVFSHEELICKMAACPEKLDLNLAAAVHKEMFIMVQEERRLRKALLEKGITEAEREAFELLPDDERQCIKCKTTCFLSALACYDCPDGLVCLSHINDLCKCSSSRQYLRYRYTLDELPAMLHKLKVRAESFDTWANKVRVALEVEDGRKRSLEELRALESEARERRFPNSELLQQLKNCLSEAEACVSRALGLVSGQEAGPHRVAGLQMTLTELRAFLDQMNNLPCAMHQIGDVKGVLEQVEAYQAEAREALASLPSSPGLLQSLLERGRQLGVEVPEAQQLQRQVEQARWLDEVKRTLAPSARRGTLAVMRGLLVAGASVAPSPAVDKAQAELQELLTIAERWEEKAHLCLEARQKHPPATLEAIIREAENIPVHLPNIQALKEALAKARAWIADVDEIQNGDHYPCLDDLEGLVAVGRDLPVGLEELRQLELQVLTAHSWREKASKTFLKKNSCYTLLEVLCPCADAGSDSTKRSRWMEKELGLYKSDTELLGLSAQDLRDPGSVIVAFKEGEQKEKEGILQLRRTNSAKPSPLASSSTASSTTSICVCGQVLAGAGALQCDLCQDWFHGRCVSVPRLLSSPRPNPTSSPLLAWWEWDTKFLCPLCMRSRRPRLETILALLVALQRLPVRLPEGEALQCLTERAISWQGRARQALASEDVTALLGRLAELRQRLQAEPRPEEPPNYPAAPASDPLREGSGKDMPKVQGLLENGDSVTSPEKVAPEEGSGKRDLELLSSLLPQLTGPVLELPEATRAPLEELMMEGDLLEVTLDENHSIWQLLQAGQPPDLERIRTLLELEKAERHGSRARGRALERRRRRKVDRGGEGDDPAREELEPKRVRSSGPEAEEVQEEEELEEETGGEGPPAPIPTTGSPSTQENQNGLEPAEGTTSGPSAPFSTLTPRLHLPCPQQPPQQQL
Outline: as §1

Measured: binding result

Sequence of TTI1 (O43156 whole entry, the tested form may be a part): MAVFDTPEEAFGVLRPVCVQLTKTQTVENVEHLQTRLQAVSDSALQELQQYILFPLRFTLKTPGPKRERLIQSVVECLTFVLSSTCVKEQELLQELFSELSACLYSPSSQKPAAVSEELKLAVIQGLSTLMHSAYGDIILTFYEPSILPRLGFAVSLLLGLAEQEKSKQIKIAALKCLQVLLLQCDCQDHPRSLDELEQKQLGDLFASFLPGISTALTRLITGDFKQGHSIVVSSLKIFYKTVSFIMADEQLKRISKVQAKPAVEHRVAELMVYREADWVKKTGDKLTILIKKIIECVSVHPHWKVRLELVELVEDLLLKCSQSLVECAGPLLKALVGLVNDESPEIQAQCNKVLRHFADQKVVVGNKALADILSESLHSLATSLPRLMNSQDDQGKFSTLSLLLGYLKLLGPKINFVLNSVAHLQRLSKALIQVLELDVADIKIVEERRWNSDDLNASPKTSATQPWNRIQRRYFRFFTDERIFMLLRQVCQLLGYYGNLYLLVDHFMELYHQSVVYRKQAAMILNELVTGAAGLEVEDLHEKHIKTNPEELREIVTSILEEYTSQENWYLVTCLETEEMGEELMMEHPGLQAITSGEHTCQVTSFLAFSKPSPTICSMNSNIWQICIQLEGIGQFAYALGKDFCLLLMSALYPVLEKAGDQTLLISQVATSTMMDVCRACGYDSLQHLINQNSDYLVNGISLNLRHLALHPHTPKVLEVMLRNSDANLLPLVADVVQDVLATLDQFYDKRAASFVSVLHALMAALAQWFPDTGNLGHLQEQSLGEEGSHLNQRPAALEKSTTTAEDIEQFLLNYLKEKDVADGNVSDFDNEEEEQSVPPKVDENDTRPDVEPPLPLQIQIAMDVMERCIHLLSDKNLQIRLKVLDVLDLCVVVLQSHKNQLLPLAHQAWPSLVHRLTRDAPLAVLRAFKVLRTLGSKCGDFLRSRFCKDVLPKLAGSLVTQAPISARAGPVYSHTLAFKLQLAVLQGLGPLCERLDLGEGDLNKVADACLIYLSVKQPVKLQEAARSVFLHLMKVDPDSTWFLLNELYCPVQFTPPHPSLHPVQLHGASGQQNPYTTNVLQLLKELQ
Sequence of TUBGCP2 (Q9BSJ2 whole entry): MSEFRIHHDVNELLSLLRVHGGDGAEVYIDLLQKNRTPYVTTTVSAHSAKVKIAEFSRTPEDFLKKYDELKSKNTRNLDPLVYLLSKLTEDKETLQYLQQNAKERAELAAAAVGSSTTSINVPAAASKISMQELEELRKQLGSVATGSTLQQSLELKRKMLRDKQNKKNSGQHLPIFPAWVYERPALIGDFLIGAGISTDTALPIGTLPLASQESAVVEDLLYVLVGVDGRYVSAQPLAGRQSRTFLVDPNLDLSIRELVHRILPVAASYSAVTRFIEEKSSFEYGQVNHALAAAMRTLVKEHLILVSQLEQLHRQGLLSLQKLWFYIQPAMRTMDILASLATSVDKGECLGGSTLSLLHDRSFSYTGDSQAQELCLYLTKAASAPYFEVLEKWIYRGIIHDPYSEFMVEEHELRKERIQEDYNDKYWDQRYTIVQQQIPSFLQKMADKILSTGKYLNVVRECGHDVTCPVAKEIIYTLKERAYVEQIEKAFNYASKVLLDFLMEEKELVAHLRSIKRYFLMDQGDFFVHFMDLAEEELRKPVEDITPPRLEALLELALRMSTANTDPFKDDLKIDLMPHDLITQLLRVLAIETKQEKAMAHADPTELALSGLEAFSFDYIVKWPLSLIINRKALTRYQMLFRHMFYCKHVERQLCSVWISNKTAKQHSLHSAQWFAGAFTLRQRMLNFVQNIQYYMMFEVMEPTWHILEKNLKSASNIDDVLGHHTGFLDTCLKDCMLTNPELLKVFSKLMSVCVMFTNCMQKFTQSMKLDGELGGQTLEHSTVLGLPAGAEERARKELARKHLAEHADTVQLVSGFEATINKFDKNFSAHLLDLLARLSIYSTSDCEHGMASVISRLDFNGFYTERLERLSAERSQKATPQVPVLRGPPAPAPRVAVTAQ

B1: LZTR1-FLAG (other, human, UniProt Q8N653 1-840, looked up)
chain: MAGPGSTGGQIGAAALAGGARSKVAPSVDFDHSCSDSVEYLTLNFGPFETVHRWRRLPPCDEFVGARRSKHTVVAYKDAIYVFGGDNGKTMLNDLLRFDVKDCSWCRAFTTGTPPAPRYHHSAVVYGSSMFVFGGYTGDIYSNSNLKNKNDLFEYKFATGQWTEWKIEGRLPVARSAHGATVYSDKLWIFAGYDGNARLNDMWTIGLQDRELTCWEEVAQSGEIPPSCCNFPVAVCRDKMFVFSGQSGAKITNNLFQFEFKDKTWTRIPTEHLLRGSPPPPQRRYGHTMVAFDRHLYVFGGAADNTLPNELHCYDVDFQTWEVVQPSSDSEVGGAEVPERACASEEVPTLTYEERVGFKKSRDVFGLDFGTTSAKQPTQPASELPSGRLFHAAAVISDAMYIFGGTVDNNIRSGEMYRFQFSCYPKCTLHEDYGRLWESRQFCDVEFVLGEKEECVQGHVAIVTARSRWLRRKITQARERLAQKLEQEAAPVPREAPGVAAGGARPPLLHVAIREAEARPFEVLMQFLYTDKIKYPRKGHVEDVLLIMDVYKLALSFQLCRLEQLCRQYIEASVDLQNVLVVCESAARLQLSQLKEHCLNFVVKESHFNQVIMMKEFERLSSPLIVEIVRRKQQPPPRTPLDQPVDIGTSLIQDMKAYLEGAGAEFCDITLLLDGHPRPAHKAILAARSSYFEAMFRSFMPEDGQVNISIGEMVPSRQAFESMLRYIYYGEVNMPPEDSLYLFAAPYYYGFYNNRLQAYCKQNLEMNVTVQNVLQILEAADKTQALDMKRHCLHIIVHQFTKVSKLPTLRSLSQQLLLDIIDSLASHISDKQCAELGADI
notes: Expressed in HEK 293T, HeLa or U87 cells; used as cell lysate; also called LZTR1 wild type-FLAG; LZTR1 WT; not shown: FLAG tag at the C-terminus
binds: [1] | [2] | [3] | [4]
